Test results as given in publication PMC4138882.

Target: 3ftt-wt, wild-type trimeric protein from which T3-08 was derived (PDB ID 3FTT), C-terminal (His)6 construct
Assay: SEC

Sequence of 3ftt-wt, wild-type trimeric protein from which T3-08 was derived (PDB ID 3FTT), C-terminal (His)6 construct (Q5HCZ5 whole entry): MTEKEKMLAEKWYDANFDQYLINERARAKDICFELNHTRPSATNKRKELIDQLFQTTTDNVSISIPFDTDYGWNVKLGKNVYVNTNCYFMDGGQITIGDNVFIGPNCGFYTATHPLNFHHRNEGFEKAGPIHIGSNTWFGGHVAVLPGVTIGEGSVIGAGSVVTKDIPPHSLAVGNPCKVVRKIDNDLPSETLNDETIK

3ftt-wt, wild-type trimeric protein from which T3-08 was derived (PDB ID 3FTT), C-terminal (His)6 construct (natural protein)
stoichiometry N: 3 subunits
